Test results taken from patent publication US20150224182A1 (UNIVERSITY OF VIRGINIA PATENT FOUNDATION, published 2015).
Non-standard residues stand in square brackets, D forms with d. No end group written: not given here. pT = C[C@@H](OP(=O)(O)O)[C@H](N)C(=O)O; pS = N[C@@H](COP(=O)(O)O)C(=O)O

B1: β-Synemin phosphopeptide RTFpSPTYGL (peptide)
peptide: RTF[pS]PTYGL
notes: also called SYNM; pS429-β-Synemin426-434
B2: pS33/S37-βcat30 (doubly phosphorylated β-catenin 30-39) (peptide)
peptide: YLD[pS]GIH[pS]GA
notes: also called pS33/pS37-βcat30; pS33/37-βcat30
B3: pS33-βcat30 (YLD(pS)GIHSGA, β-catenin 30-39 with phosphoserine 33) (peptide)
peptide: YLD[pS]GIHSGA
notes: also called pS33-βcatenin30-39; YLDsGIHSGA
B4: GRK2 phosphopeptide KPRsPVVEL (peptide)
peptide: KPR[pS]PVVEL
notes: also called Beta-Adrenergic receptor kinase 1

Molecular target: T1, HLA-B*0702 (human)
T1 construct: also called HLA-B7
Assay: HLA-B7 eluate MS; ALL1; 4 means >25 copies/cell

Question: Does RPV[pT]PVSDL [KLF10 phosphopeptide RPVtPVSDL] bind?
Answer: Result: binds

Question: Does FSI[pS]PVRL [SON phosphopeptide FSIsPVRL] bind?
Answer: Result: binds

Question: Does RPQRA[pT]SNVF [MYL9 phosphopeptide RPQRAtSNVF] bind?
Answer: Result: binds

Question: Does KPPH[pS]PLVL [MYC phosphopeptide KPPHsPLVL] bind?
Answer: Result: binds

Question: Does RPA[pS]AGAML [MEF2D phosphopeptide RPAsAGAML] bind?
Answer: Result: binds

Question: Does RAP[pS]PSSRM [SRRM2 phosphopeptide RAPsPSSRM] bind?
Answer: Result: binds

Molecular target: T1, HLA-B*0702
Assay: HLA-B7 eluate MS; ALL1; 3 means 6-25 copies/cell

Question: Does RPP[pS]SEFLDL [RERE phosphopeptide RPPsSEFLDL] bind?
Answer: Result: binds

Question: Does KPP[pT]PGASF [SPEN phosphopeptide KPPtPGASF] bind?
Answer: Result: binds

Question: Does RPV[pS]PFQEL [phosphopeptide RPVsPFQEL (no gene name in Table 7; no database hit)] bind?
Answer: Result: binds

Molecular target: T1, HLA-B*0702
Assay: HLA-B7 eluate MS; AML1; 1 means <1 copy/cell

Question: Does EPKRR[pS]ARL [HMGN1 phosphopeptide EPKRRsARL] bind?
Answer: Result: binds

Question: Does YQR[pS]FDEVEGV [GIGYF2 phosphopeptide YQRsFDEVEGV] bind?
Answer: Result: binds

Question: Does VPR[pS]PKHAHSSSL (also called Supervillin) [SVIL phosphopeptide VPRsPKHAHSSSL] bind?
Answer: Result: binds

Question: Does SPGLARKR[pS]L [ZFP106 phosphopeptide SPGLARKRsL] bind?
Answer: Result: binds

Question: Does SPSTSRSGG[pS]SRL [C1orf63 phosphopeptide SPSTSRSGGsSRL] bind?
Answer: Result: binds

Molecular target: T2, HLA-A*0201 (human)
T2 construct: also called HLA-A2
Assay: not described

Question: Does RVA[pS]PTSGVK (also called RVAk) [IRS2 phosphopeptide RVAsPTSGVK] bind?
Answer: Result: no binding

Question: Does RVA[pS]PTSGVKR [IRS2 phosphopeptide RVApSPTSGVKR] bind?
Answer: Result: no binding

Molecular target: T3, HLA B*0702 (human)
T3 construct: Class I MHC molecule of the cells from which the associated phosphopeptides were detected; also called HLA-B7
Assay: MS of peptides eluted from HLA; L/M column: L/M

Question: Does KPR[pS]PVVEL [KPRsPVVEL] bind?
Answer: Result: binds

Question: Does RPA[pS]ARAQPGL [RPAsARAQPGL] bind?
Answer: Result: binds

Question: Does SPRR[pS]RSISL [SPRRsRSISL] bind?
Answer: Result: binds

Molecular target: T2, HLA-A*0201
Assay: MS of HLA-A*0201 (BB7.2) eluate; cultured melanocytes; ++ means 5-50 copies/cell

Question: Does RQI[pS]QDVKL (also called AMPD2) [Adenosine monophosphate deaminase 2 phosphopeptide RQIpSQDVKL] bind?
Answer: Result: binds

Question: Does RLL[pS]PLSSA (also called RAVER1) [phosphopeptide RLLpSPLSSA (source protein Unknown in Table 5)] bind?
Answer: Result: binds

Question: Does RQD[pS]TPGKVFL (also called NR2C1) [Nuclear hormone receptor TR2 phosphopeptide RQDpSTPGKVFL] bind?
Answer: Result: binds

Question: Does B1 bind?
Answer: Result: binds

Molecular target: T2, HLA-A*0201
Assay: competition with iodinated [..] for purified HLA-A*0201 plus β2M, capture on W6/32 plates

Question: With B2 as the binder, how does the IC50 read?
Answer: Its IC50 is 0.678 µg/mL.

Question: B3 was tested. Which IC50 did it give?
Answer: The IC50 was 0.327 µg/mL.

Molecular target: T1, HLA-B*0702
Assay: HLA-B7 eluate MS; AML1; 4 means >25 copies/cell

Question: Does SPRR[pS]RSISL [SFRS7 phosphopeptide SPRRsRSISL] bind?
Answer: Result: binds

Question: Does FRR[pS]PTKSSLDY [RBM14 phosphopeptide FRRsPTKSSLDY] bind?
Answer: Result: binds

Question: Does RPR[pS]PTGP (also called Splicing factor 45) [RBM17 phosphopeptide RPRsPTGP] bind?
Answer: Result: binds

Question: Does RRK[pS]QVAEL [MKI67IP phosphopeptide RRKsQVAEL] bind?
Answer: Result: binds

Molecular target: T2, HLA-A*0201
Assay: MS of HLA-A*0201 (BB7.2) eluate; cultured melanocytes; +++ means 50-500 copies/cell

Question: Does RLS[pS]PLHFV (also called Protein FAM134A) [ORF 17, chromosome 2 phosphopeptide RLSpSPLHFV] bind?
Answer: Result: binds

Question: Does RQL[pS]SGVSEI (also called HSPB1) [Heat shock protein 27 (HSP27) phosphopeptide RQLpSSGVSEI] bind?
Answer: Result: binds

Molecular target: T1, HLA-B*0702
Assay: HLA-B7 eluate MS; ALL1; 2 means 1-5 copies/cell

Question: Does RSL[pS]PLLF [VPS13D phosphopeptide RSLsPLLF] bind?
Answer: Result: binds

Question: Does RPD[pS]RLGKTEL [SETD2 phosphopeptide RPDsRLGKTEL] bind?
Answer: Result: binds

Question: Does RPY[pS]PPFFSL [FAM53C phosphopeptide RPYsPPFFSL] bind?
Answer: Result: binds

Question: Does KPY[pS]PLASL [NFATC2 phosphopeptide KPYsPLASL] bind?
Answer: Result: binds

Question: Does RPAK[pS]MDSL [ARHGAP30 phosphopeptide RPAKsMDSL] bind?
Answer: Result: binds

Question: Does RPKPSS[pS]PV [PCBP2 phosphopeptide RPKPSSsPV] bind?
Answer: Result: binds

Question: Does B4 bind?
Answer: Result: binds

Question: Does RPA[pS]PAAKL [KIAA1310 phosphopeptide RPAsPAAKL] bind?
Answer: Result: binds

Question: Does RPP[pS]PGPVL [SCAP phosphopeptide RPPsPGPVL] bind?
Answer: Result: binds

Molecular target: T1, HLA-B*0702
Assay: HLA-B7 eluate MS; AML1; 2 means 1-5 copies/cell

Question: Does SPR[pS]PSTTYL [CHAF1A phosphopeptide SPRsPSTTYL] bind?
Answer: Result: binds

Question: Does RPRAN[pS]GGVDL [RREB1 phosphopeptide RPRANsGGVDL] bind?
Answer: Result: binds

Question: Does RPRPH[pS]APSL [MIIP phosphopeptide RPRPHsAPSL] bind?
Answer: Result: binds

Question: Does RPR[pS]PSPIS [GRM5 phosphopeptide RPRsPSPIS] bind?
Answer: Result: binds

Question: Does RPR[pS]AVLL [AKAP13 phosphopeptide RPRsAVLL] bind?
Answer: Result: binds

Question: Does RPSRS[pS]PGL [SYNPO phosphopeptide RPSRSsPGL] bind?
Answer: Result: binds

Question: Does RPR[pS]PTGP[pS]NSF (also called Splicing factor 45) [RBM17 phosphopeptide RPRsPTGPsNSF] bind?
Answer: Result: binds

Question: Does SPS[pS]PSVRRQL [ANKRD17 phosphopeptide SPSsPSVRRQL] bind?
Answer: Result: binds

Question: Does FRR[pS]PTKSSL [RBM14 phosphopeptide FRRsPTKSSL] bind?
Answer: Result: binds

Question: Does RPQRAT[pS]NVF [MYL9 phosphopeptide RPQRATsNVF] bind?
Answer: Result: binds

Question: Does YQR[pS]FDEVEGVF [GIGYF2 phosphopeptide YQRsFDEVEGVF] bind?
Answer: Result: binds

Question: Does KPA[pS]PKFIVTL [ZC3H14 phosphopeptide KPAsPKFIVTL] bind?
Answer: Result: binds
